The target of one assay is T1, purified EGFR (Sigma) (human, UniProt P00533 25-1210, limits assumed).
T1 construct: native receptor purified from A431 cells; also called solid phase coated EGFR

Assay [1] deals with T2, EGFR on A431 derived membrane vesicles (human, UniProt P00533 25-1210).
T2 construct: whole, on cells; presented in membrane vesicles coated on ELISA plates, not on intact cells; also called EGFR harboring A431 vesicles; EGFR expressing A431 vesicles

For a further assay, the target named is T3, Recombinant human IGF-IR (human, UniProt P08069 31-932).
T3 construct: bought; also called rhIGFIR; rhIGF-IR
As to the kind of experiment: SPR (BIAcore), immobilized IGF-IR. In general terms: SPR reads the build-up and loss of mass on a sensor chip optically.

The target of assay [2] is T4, cell surface expressed EGFR (human, UniProt P00533 25-1210).
T4 construct: whole, on cells; also called EGFR on A431 tumor cells; EGFR on HER14 cells

B1: PMP38G7 (VHH)
VHH: EVQLVESGGGLVQAGGSLRLSCAASGRTFSSYVMGWFRQATGKEREFVATIAWDSGSTYYADSVKGRFTISRDNAKNTVHLQMNSLKPEDTAVYYCAASYNVYYNNYYYPISRDEYDYWGQGTQVTVSS
notes: also called EGR PMP38G7
As to B1, in the assay with purified EGFR (Sigma), the koff came out at 0.00017 s⁻¹.

B2: PMP7E12 (VHH)
VHH: EVQLVESGGGLVQAGGSLRLSCTASGRTFENNAMAWFRQAAGKEREFVAGFSGSGGATYYAHSVEGRFTISRDNAKNTVDLQMNSLSLEDTAVYLCAARRKSGEVVFTIPARYDYWGQGTQVTVSS
In the assay with purified EGFR (Sigma), B2 came in with a koff of 0.0015 s⁻¹.

B3: 27-10-E8 (VHH)
VHH: EVQLVESGGGLVQAGGSLRLSCAASGRTFSTYTMAWFRQAPGKEREFVQGISRSDGGTYDADSVKGRFTISRDNAKNTVYLQMNSLKPEDTAVYFCAAASVKLVYVNPNRYSYWGQGTQVTVSS
notes: anti-EGFR Nanobody; tested as periplasmic extract or IMAC purified soluble Nanobody, tag not described; also called EGR 27-10-E8
For B3, in assay [1], the “IC50 (read off the curve)” value is roughly 900 pM. Further, the off-rate constant (koff) with purified EGFR (Sigma) came out at 0.0017 s⁻¹.

B4: PMP8C7 (VHH)
VHH: QVKLEESGGGLVQAGGSLRLSCAASGRAFSSYVMGWFRQAPGKEREIVGAISWRGGSTYYADSVKGRFTISRDNAKNTVYLQMNSLKPEDTAVYYCAAVYRVGAISEYSGTDYYTDEYDYWGQGTQVTVSS
notes: also called EGR PMP8C7
With B4, the binding result in assay [1] is “binds”.

B5: PMP1C7 (VHH)
VHH: QVKLEESGGGLVQAGGSLRLSCVASGRTFSRTAMAWFRQAPGKEREFVATITWNSGTTRYADSVKGRFFISKDSAKNTIYLEMNSLEPEDTAVYYCAATAAAVITPTRGYYNYWGQGTQVTVSS
notes: anti-IGF-IR Nanobody; tag not described; also called IGR PMP1C7
As for B5, the off-rate (koff) in the assay with Recombinant human IGF-IR came to 0.0019 s⁻¹.

B6: PMP7A5 (VHH)
VHH: EVQLVESGGGLVQAGGSLRLSCAASDRTFSSNNMGWFRQAPGKEREFVAAIGWGGLETHYSDSVKGRFTISRDNAKNTVYLQMNSLKPEDTARYYCAVSSTRTVIYTLPRMYNYWGQGTQVTVSS
As to B6, the koff in the assay with purified EGFR (Sigma) came out at 0.0015 s⁻¹.

B7: PMP9C1 (VHH)
VHH: EVQLVESGGGLVQAGGSLRLSCAASGRTFSGFAMGWFRQAPGKEREFVAAISWSGGSLLYVDSVKGRFTISRDNAKNTVHLQMNSLKPGDTAVYYCAAMVGPPPRSLDYGLGNHYEYDYWGQGTQVTVSS
B7: the binding result in assay [1] and in assay [2] was “binds” each time.

B8: 27-1-H7 (VHH)
VHH: EVQLVESGGGLVQAGGSLRLSCAASGRGAWAWFRQAPGKEREFVGGLSWSADSTYYADSVKGRFTISRDNAKNTVFLQMTNLKADDTAVYYCAAHRRPFASVFTTTRMYDYWGPGTQVTVSS
Molecule B8 displayed an off-rate constant (koff) with purified EGFR (Sigma) of 0.0031 s⁻¹.

Broadly, the koff is the rate constant with which the complex falls apart.

For the origin of these results see patent US20090252681A1 (Ablynx, published 2009).
